For one assay, the target named is PD-L1-ECD (UniProt Q9NZQ7). Put plainly: BLI.
Assay [1] concerns the target CD16a-ECD (human) (UniProt P08637).
Assay [2] has the same target. Put plainly: BLI.

The text below walks through data of PMC8141644.

One may read the Kd as the free concentration of one partner at which half of the binding sites on the other are occupied at equilibrium, for simple one-to-one binding. A higher Kd goes with lower affinity.

Where two headings read alike, the source gives them in different places.

Chain of CD16a-ECD (human) (P08637 17-208): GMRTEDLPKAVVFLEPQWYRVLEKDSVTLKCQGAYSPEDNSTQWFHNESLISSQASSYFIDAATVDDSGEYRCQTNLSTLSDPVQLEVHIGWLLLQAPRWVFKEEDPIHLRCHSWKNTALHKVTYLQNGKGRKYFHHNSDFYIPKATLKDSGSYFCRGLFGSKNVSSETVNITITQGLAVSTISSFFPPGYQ
Chain of PD-L1-ECD (Q9NZQ7 19-238): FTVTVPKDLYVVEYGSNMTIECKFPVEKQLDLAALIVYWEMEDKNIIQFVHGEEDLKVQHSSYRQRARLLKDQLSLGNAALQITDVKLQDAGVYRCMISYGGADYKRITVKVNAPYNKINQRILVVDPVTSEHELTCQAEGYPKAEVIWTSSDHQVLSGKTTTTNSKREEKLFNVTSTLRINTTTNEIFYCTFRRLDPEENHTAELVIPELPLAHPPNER

In the assay with PD-L1-ECD, ICI12 (from UniProt P01857) registered a Kd of 5.8 nM.

On to ICI13 (from UniProt P01857), for which the Kd with PD-L1-ECD amounted to 3.2 nM.

Substance “bispecific hdFEB4-1-4×hNKE14-8 (bispecific antibody)” had an EC50 of the ADCC reporter bioassay (Promega G7010, luciferase; A431 target cells; 0.2 nM – 13.3 nM antibody) in the assay with CD16a-ECD (human) [1] of 0.362 nM.

Substance “bispecific hdFEB4-1-4×hNKE14-8 (from UniProt P01857)” yielded a Kd with CD16a-ECD (human) [2] (bispecific antibody) of 16.5 nM.

With hNKE14-8 (from UniProt P01857), the Kd in the assay with CD16a-ECD (human) [2] was found to be 15.5 nM.
